Reference: patent US20100162415A1

Experiments:
Assay in all cases: cell-based or functional assay
[1] = target: hum-X VEGF (mouse VEGF-A with 10 residues replaced by the human residues)
[2] = target: human VEGF-A (huVEGF165) (human) (UniProt P15692)
[3] = target: murine VEGF-A (muVEGF164) (mouse) (UniProt Q00731)
Sequence of UniProt Q00731 (Q00731 other isoform, or with tags, fused parts or gaps): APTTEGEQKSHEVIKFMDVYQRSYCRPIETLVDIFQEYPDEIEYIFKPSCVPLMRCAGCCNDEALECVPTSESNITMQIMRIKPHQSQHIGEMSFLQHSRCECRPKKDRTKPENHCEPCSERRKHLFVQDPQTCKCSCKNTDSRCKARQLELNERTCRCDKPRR

Sequence of UniProt P15692 (P15692 other isoform, or with tags, fused parts or gaps): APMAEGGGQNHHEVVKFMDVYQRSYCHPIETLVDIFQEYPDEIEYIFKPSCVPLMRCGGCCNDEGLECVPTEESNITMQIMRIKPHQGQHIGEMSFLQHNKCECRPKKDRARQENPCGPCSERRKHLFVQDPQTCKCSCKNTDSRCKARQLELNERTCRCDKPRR

IC50, inhibition of VEGF-stimulated bovine retinal capillary endothelial cell proliferation [1] [mg/L]	IC50, inhibition of VEGF-stimulated bovine retinal capillary endothelial cell proliferation [2] [mg/L]	IC50, inhibition of VEGF-stimulated bovine retinal capillary endothelial cell proliferation [3] [mg/L]	Substance
0.076	0.052	0.5	B20-4.1 (antibody)
0.0061	–	–	G6-31 (antibody)
0.0027	0.00075	–	Y0317 (antibody)
